Test [1] concerns caspase-1 activity in splenic CD11b^+ monocytes. Put plainly: FAM FLICA flow cytometry of caspase-1 activity (inflammasome activation) in splenic monocytes after stroke. The test is classed as in vivo, mice. The conditions noted are these: caspase-8 or caspase-9 inhibitor vs vehicle, 18 h after stroke, normalized to sham. From the text:
(§1) Mice were anaesthetized with isoflurane delivered in a mixture of 30% O2 and 70% N2O. An incision was made between the ear and the eye in order to expose the temporal bone. Mice were placed in supine position, and a laser Doppler probe was affixed to the skull above the middle cerebral artery (MCA) territory. The common carotid artery and left external carotid artery were exposed via midline incision and further isolated and ligated. A 2-mm silicon-coated filament (Doccol) was inserted into the internal carotid artery, advanced gently to the MCA until resistance was felt, and occlusion was confirmed by a corresponding decrease in blood flow (i.e., a decrease in the laser Doppler flow signal by 80%. After 60 minutes of occlusion, the animals were re-anesthetized, and the filament was removed. After recovery, the mice were kept in their home cage with ad libitum access to water and food. Sham-operated mice received the same surgical procedure, but the filament was […] in lieu of being advanced to the MCA. Body temperature was maintained at 37° C. throughout surgery in all mice via feedback-controlled heating pad. The overall mortality rate of animals subjected to MCA occlusion was approximately 20%. All animals in the sham group survived the procedure. Exclusion criteria: 1. Insufficient MCA occlusion (a reduction in blood flow to […] of the baseline value). 2. Death during the surgery. 3. Lack of brain ischemia as quantified post-mortem by histological analysis.
Human recombinant DNase (hrDNase): 1000 U of human recombinant DNase (Roche, Switzerland) dissolved in incubation 1× buffer (40 mM Tris-HCl, 10 mM NaCl, 6 mM MgCl2, 1 mM CaCl2, pH 7.9, diluted in PBS, Roche) was injected i.v. in the tail vein 1 hour after surgery in a final volume of 100 μl. The control group was administered vehicle injections at the same volume, route, and timing as experimental animals.
Caspase-8 inhibitor (Z-IETD-FMK) & Caspase-9 inhibitor (Z-LEHD-FMK): The apoptosis inhibitors Z-IETD-FMK and Z-LEHD-FMK (R&D systems, US) in DMSO dissolved in PBS and injected i.p. 30 minutes after surgery. Z-LEHD-FMK was injected at a dose of […] body weight at a final volume of 200 μl. Z-IETD-FMK was injected at a dose of 0.8 mg kg^−1 body weight at a final volume of 100 μl. The control groups were administered vehicle injections at the same volume, route, and timing as experimental animals.
To detect the active forms of caspase-1 in blood, spleen, and bone marrow samples, cell suspensions were stained with the fluorescent inhibitor probe FAM-YVAD-FMK (FAM FLICA, BioRad, Germany) for 30 minutes at 37° C. according to the manufacturer's instructions. After washing, the cells were stained for CD45^+CD3^+ T cells and CD45^+Cd11b^+ monocytes. The flow cytometry data was acquired on a BD FACSVerse (for representative gating strategy, see FIG. 10B).
A general note: Flow cytometry measures light scatter and fluorescence of single cells or particles in a stream.

Test [2] deals with splenic CD3^+ T cells. The experiment in a line: Splenic T cell counts by FACS after experimental stroke. It is filed as in vivo, mice. The following applies: i.p. 30 minutes after stroke surgery; Z-IETD-FMK 0.8 mg kg^−1, Z-LEHD-FMK; normalized to sham.
From the text: as §1
Anti-IL1β: Mice received two injections of antagonizing anti-IL-1β in sterile saline (clone: B122, InVivoMab, BioXcell, US), 1 hour prior to and 1 hour after surgery. Anti-IL-1β or the corresponding IgG control (Armenian hamster IgG, InVivoMab, BioXcell, US) was injected i.p. at a dose of 4 mg kg^−1 body weight in a final volume of 200 μl.
Anti-FasL: Mice received two injections of antagonizing anti-FasL in sterile saline (clone: MFL3, InVivoMab, BioXcell, US), 1 hour prior to and 1 hour after surgery. […]

Test [3] relates to splenic T cells. The experiment in a line: rIL-1β i.p. injection in WT mice: T cell death in the spleen by FACS. The test is classed as in vivo. The conditions noted are these: rIL-1β 100 or 1000 ng single i.p. injection, 6 h later. The procedure: (§2) Murine recombinant IL-1β: Recombinant IL-1β (401-ML, R&D systems, US) was diluted in sterile PBS and administered intraperitoneally at a dose of 100 or 1000 ng per mouse in a total volume of 100 μl. The control group was administered vehicle injections at the same volume, route and timing as experimental animals.
(§3) Mice were deeply anaesthetized with ketamine (120 mg/kg) and xylazine (16 mg/kg) and blood was drawn via cardiac puncture in 50 mM EDTA (Sigma-Aldrich). Plasma was isolated by centrifugation at 3,000 g for 10 minutes and stored at −80° C. until further use. The blood pellet was resuspended in DMEM and erythrocytes were lysed using isotonic ammonium chloride buffer. Immediately following cardiac puncture, mice were transcardially perfused with normal saline for dissection of bone marrow and spleen. […]
(§4) The anti-mouse antibodies listed below (see Table 1) were used for surface marker staining of CD45^+ leukocytes, CD45^+CD11b^+ monocytes (+FasL^+ expression), CD3^+ T cells, CD3^+CD4^+ Thelper cells, CD3^+CD8^+ Tcytotox cells and CD19^+ B cells (for representative gating strategy, see FIG. 10A). […] Flow cytometric data was acquired using a BD FACSverse flow cytometer (BD Biosciences) and analyzed using FlowJo software (Treestar).

Test [4] deals with FasL^+CD11b^+ monocytes (BMDMs). The following applies: BMDMs stimulated with rIL-1β in increasing doses, FACS 180 minutes after adding T cells.
In test [5] the test system is monocytic FasL. Put plainly: rIL-1β i.p. injection in WT mice: monocytic FasL expression in the spleen by FACS. It is filed as in vivo. The conditions noted are these: rIL-1β 100 or 1000 ng single i.p. injection, 6 h later. The procedure: as §2, §3, §4
The subject of test [6] is T cells. Put plainly: BMDMs stimulated with rIL-1β, then T cell co-culture: T cell death. It is filed as cell-based, mice. The conditions noted are these: T cells added to rIL-1β-stimulated BMDMs in fresh medium, FACS 180 minutes later. The procedure: Round-bottom tissue culture-treated 96-well plates were coated with 100 μl of PBS containing a mixture of […] purified NA/LE hamster anti-mouse CD3e (clone: 145-2C11, BD Pharmingen) and […] anti-mouse CD28 (clone: 37.51, Invitrogen), and then incubated overnight at 37° C. with 5% CO2. Spleens (wild type, Casp1^−/−) isolated from mice were homogenized into single splenocyte suspensions by using a 40 μm cell strainer followed by erythrolysis as described above. T cells were purified from splenocytes using a negative selection kit (MagniSort, Thermo Fisher) according to the manufacturer's instructions. Purity was reliably ≥90% as assessed by flow cytometry.
Control-treated BMDMs received only FBS-containing culture media. […] Stimulation by secreted factors (left), and 2. Cell-cell contact (right).

The subject of test [7] is FasL on BMDMs. The experiment in a line: BMDMs treated with IL-1a, IL-1b or IL-18: FasL+ expression. The following applies: BMDMs treated with 100 ng of IL-1a, IL-1b or IL-18 for 4 h. It is filed as cell-based, mice.

This note sets out measurements from US20230241185A1, “COMPOSITION COMPRISING A DNA-DEGRADING ENZYME FOR USE IN A METHOD FOR THE TREATMENT OF IMMUNOSUPPRESSION AFTER ACUTE TISSUE INJURY” (Klinikum der Universität München, priority 2020, published 2023).

Like-named read-outs stand apart in the source and are kept apart here. Residues, ends and D or L forms follow the SMILES beside them. *: point of attachment. Cbz = O=C(OCc1ccccc1)*; CH2F = FC*

`CC[C@H](C)[C@H](NC(=O)OCc1ccccc1)C(=O)N[C@@H](CCC(=O)OC)C(=O)N[C@H](C(=O)N[C@@H](CC(=O)OC)C(=O)CF)[C@@H](C)O` [Z-IETD-FMK] (Cbz-IE(OMe)TD(OMe)-CH2F): the “caspase-1 activity in splenic CD11b+ monocytes” value in test [1] is “neither affected caspase-1 activation in monocytes”; in test [1] (listed as C8i), “Neither caspase-8 nor caspase-9 inhibitor showed differences in caspase-1 activity compared to the vehicle-treated mice”. Moreover, the T cell death entry in test [2] is listed as “T cell death was only reduced in mice treated with the caspase-8”.

In the case of `COC(=O)CC[C@H](NC(=O)[C@H](CC(C)C)NC(=O)OCc1ccccc1)C(=O)N[C@@H](Cc1cnc[nH]1)C(=O)N[C@@H](CC(=O)OC)C(=O)CF` [Z-LEHD-FMK] (Cbz-LE(OMe)HD(OMe)-CH2F), the results for the “caspase-1 activity in splenic CD11b+ monocytes” value in test [1] and in test [1] (listed as C9i) were “neither affected caspase-1 activation in monocytes” and “Neither caspase-8 nor caspase-9 inhibitor showed differences in caspase-1 activity compared to the vehicle-treated mice”, respectively.

B1: rIL-1β: Murine recombinant IL-1β (401-ML, R&D systems) (protein, UniProt P10749 118-269, looked up)
Interleukin-1 beta: VPIRQLHYRLRDEQQKSLVLSDPYELKALHLNGQNINQQVIFSMSFVQGEPSNDKIPVALGLKGKNLYLSCVMKDGTPTLQLESVDPKQYPKKKMEKRFVFNKIEVKSKVEFESAEFPNWYISTSQAEHKPVFLGNNSGQDIIDFTMESVSS
For B1, the “T cell death in the spleen” value in test [3] (listed as rIL-1b) is “dose-dependent increase in T cell death in the spleen”; in test [3] (listed as recombinant IL-1β), “dose-dependently induced T cell death and FasL upregulation on myeloid cells”. Further, the “ratio of FasL+CD11b+ monocytes / FasL expression” value in test [4] was “increased the ratio of FasL^+CD11b^+ monocytes”; in test [4] (listed as recombinant IL-1β) it was “increased FasL expression and T cell death but to a lesser degree than induced by the serum of stroke mice”. In addition, the “monocytic FasL expression in the spleen” value in test [5] was “dose-dependent increase in associated monocytic FasL expression in the spleen”; in test [5] (listed as recombinant IL-1β), “dose-dependently induced T cell death and FasL upregulation on myeloid cells”. Moreover, the T cell death entry in test [6] was “increased T cell death”; in test [6] (listed as recombinant IL-1β), “increased FasL expression and T cell death but to a lesser degree than induced by the serum of stroke mice”. Besides, in test [7], the “FasL+ expression normalized to untreated control” value is recorded as “FasL upregulation on myeloid cells was predominantly induced by IL-1β”.
